Measured values taken from article PMC2871789, “Characterization of the Interaction and Cross-Regulation of Three Mycobacterium tuberculosis RelBE Modules”.

Key:
RelF;RelG = target: T1, RelF;RelG (Mycobacterium tuberculosis …, UniProt O33347;O33348 1-93;1-87, |); assay: EMSA; details: protein: recombinant;recombinant; tags: His or GST;His or GST; label: 5'-32P; blunt
T1 sequence 1: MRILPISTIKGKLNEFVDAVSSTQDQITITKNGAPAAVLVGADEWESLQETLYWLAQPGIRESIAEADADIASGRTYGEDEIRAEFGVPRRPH
T1 sequence 2: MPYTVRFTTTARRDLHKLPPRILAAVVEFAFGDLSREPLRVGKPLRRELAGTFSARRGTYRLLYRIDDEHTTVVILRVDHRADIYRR

RelB;RelE = target: T2, RelB;RelE (Mycobacterium tuberculosis …, UniProt O50462;O50461 1-89;1-97, |); assay: EMSA; 1.8-15 uM titration; details: protein: recombinant;recombinant; tags: His (modified pET28a);His or GST; chain copies: 2;2; label: 5'-32P; blunt
T2 sequence 1: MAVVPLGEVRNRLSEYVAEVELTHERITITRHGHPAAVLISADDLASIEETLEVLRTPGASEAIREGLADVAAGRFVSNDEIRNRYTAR
T2 sequence 2: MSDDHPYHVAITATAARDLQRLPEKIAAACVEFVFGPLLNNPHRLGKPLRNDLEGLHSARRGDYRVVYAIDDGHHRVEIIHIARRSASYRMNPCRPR

RelJ = target: T3, RelJ (Mycobacterium tuberculosis H37Rv, UniProt P9WF25 1-91); assay: EMSA; 7.5 uM RelJ alone; details: protein: recombinant; tags: His or GST; chain copies: 2; label: 5'-32P; blunt
T3 sequence: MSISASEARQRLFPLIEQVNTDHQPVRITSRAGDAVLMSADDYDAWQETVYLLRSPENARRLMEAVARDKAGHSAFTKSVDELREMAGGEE

RelJ;RelK = RelJ;RelK (Mycobacterium tuberculosis …, UniProt P9WF25;P9WF09 1-91;1-85, |); assay: EMSA; 1.8-15 uM titration; details: protein: recombinant;recombinant; tags: His or GST;His or GST; label: 5'-32P; blunt
RelJ;RelK, sequence (P9WF09 whole entry, one chain of several): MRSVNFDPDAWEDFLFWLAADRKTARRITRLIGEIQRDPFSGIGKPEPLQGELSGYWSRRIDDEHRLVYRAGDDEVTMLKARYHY

B1: 2865p7 (dsDNA)
DNA 1: AAACCTGAGACGCCGCGCACAAAGTGCGAAACC
DNA 2: GGTTTCGCACTTTGTGCGCGGCGTCTCAGGTTT
B1: binds (RelF;RelG).

B2: 1247p7 (dsDNA)
DNA 1: GGCGTTCGGCTCGGTAAGCCGATGCTCGGCG
DNA 2: CGCCGAGCATCGGCTTACCGAGCCGAACGCC
B2: binds (RelB;RelE).

B3: 3357p7 (dsDNA)
DNA 1: CCACCGTACGGACAACTTGTACCATTGTGGTACAGATTATCCGTACATCTT
DNA 2: AAGATGTACGGATAATCTGTACCACAATGGTACAAGTTGTCCGTACGGTGG
B3: binds (RelJ); binds (RelJ;RelK).
